According to paper doi:10.1101/2024.10.30.620894 (bioRxiv, 2024):

Key:
[1] = biological target: VLDLR(28-797)Δ(751-779)-C-tag (VLDLR ectodomain, VLDLR-ed) (human) (UniProt P98155); assay: ELISA
[2] = biological target: the molecule itself; assay: SEC

Kd [1] [nM]	Molecule	stoichiometry N [2]
1.2	receptor-associated protein (RAP) (from UniProt P30533 36-357) (natural protein)	
80	wild-type clusterin (WT-Clu) (natural protein, human, N-glycans (six in the whole protein) | N-glycans (six in the whole protein)) chain 1: DQTVSDNELQEMSNQGSKYVNKEIQNAVNGVKQIKTLIEKTNEERKTLLSNLEEAKKKKEDALNETRESETKLKELPGVCNETMMALWEECKPCLKQTCMKFYARVCRSGSGLVGRQLEEFLNQSSPFYFWMNGDRIDSLLENDRQQTHMLDVMQDHFSRASSIIDELFQDRFFTREPQDTYHYLPFSLPHRRPHFFFPKSRIVR chain 2: SLMPFSPYEPLNFHAMFQPFLEMIHEAQQAMDIHFHSPAFQHPPTEFIREGDDDRTVCREIRHNSTGCLRMKDQCDKCREILSVDCSTNNPSQAKLRRELDESLQVAERLTRKYNELLKSYQWKMLNTSSLLEQLNEQFNWVSRLANLTQGEDQYYLRVTTVASHTSDSDVPSGVTEVVVKLFDSDPITVTVPVEVSRKNPKFMETVAEKALQEYRKKHREE	2
